Assay results reported in patent publication US20120316071A1 (published 2012).

T1: rHuman Erythropoietin R/Fc Chimera, CF (R&D Systems Cat#963-ER) (human, UniProt P19235 25-250)
T1 construct: Bought from R&D Systems; also called EPO R; EPO R/Fc; Fc part of the bought chimera not given
T1 sequence (looked up): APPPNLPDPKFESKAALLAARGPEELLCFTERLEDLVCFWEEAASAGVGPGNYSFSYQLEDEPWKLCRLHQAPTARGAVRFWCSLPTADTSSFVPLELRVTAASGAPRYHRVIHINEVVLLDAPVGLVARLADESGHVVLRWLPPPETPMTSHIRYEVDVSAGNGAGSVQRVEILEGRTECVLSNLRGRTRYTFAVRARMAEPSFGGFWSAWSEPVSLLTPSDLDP


How the values were obtained:
[1] = target: T2, rHuman P-Cadherin/Fc Chimera, CF (R&D Systems Cat#861-PC) (human, UniProt P22223 108-654); experiment: ECL multispot (MSD) binding assay; antigen spotted on plate, Fab in solution, Ru-labelled anti-kappa detection;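 note: purified Fab in 1% BSA TBST incubated 1 h at 20 °C with shaking, signal compared with each well's blank, signal/blank ratio of 4 or above counted as binder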
T2 construct: Bought from R&D Systems; Fc part of the bought chimera not given

[2] = target: T3, rHuman ErbB2/Fc Chimera, CF (R&D Systems Cat#1129-ER) (human, UniProt P04626 23-652); experiment: as above
T3 construct: Bought from R&D Systems; also called human epidermal growth factor 2 receptor; Fc part of the bought chimera not given

[3] = target: T4, rHuman HGF R/c-MET/Fc Chimera, CF (R&D Systems Cat#358-MT/CF) (human, UniProt P08581 25-932); experiment: as above
T4 construct: Bought from R&D Systems; also called HGF R/Fc; hepatocyte growth factor receptor; Fc part of the bought chimera not given
T4 sequence (P08581 25-932, change not shown): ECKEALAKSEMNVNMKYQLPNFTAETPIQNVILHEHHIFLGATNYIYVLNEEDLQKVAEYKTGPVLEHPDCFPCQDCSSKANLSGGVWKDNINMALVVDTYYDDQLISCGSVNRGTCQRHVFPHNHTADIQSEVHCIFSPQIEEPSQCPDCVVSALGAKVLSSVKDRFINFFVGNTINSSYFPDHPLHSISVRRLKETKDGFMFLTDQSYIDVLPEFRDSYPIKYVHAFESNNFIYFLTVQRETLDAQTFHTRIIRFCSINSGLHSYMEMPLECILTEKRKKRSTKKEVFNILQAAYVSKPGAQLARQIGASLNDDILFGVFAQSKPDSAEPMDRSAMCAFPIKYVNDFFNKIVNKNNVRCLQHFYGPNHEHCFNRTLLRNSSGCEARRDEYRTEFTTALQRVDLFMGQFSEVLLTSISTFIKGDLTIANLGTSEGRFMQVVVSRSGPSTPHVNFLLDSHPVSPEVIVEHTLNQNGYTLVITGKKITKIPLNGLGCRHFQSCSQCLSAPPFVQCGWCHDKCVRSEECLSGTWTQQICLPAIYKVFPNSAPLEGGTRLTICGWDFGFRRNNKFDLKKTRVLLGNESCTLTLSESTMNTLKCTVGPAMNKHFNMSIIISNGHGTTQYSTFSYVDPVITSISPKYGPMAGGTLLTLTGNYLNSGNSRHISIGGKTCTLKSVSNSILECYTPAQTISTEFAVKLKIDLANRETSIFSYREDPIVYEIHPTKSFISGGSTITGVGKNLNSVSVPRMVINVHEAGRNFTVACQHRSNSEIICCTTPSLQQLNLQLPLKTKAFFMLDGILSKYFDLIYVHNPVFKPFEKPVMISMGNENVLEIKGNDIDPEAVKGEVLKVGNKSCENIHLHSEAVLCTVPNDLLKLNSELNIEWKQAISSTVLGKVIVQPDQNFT

[4] = target: T5, rHuman Notch-1/Fc Chimera, CF (R&D Systems Cat#3647-TK) (human, UniProt P46531 19-526); experiment: as above
T5 construct: Bought from R&D Systems; Fc part of the bought chimera not given

[5] = target: T6, rHuman CD44/Fc Chimera, CF (R&D Systems Cat#3660-CD) (human, UniProt P16070 21-220); experiment: as above
T6 construct: Bought from R&D Systems; Fc part of the bought chimera not given

[6] = target: T7, rHuman IGF-1 sR, CF (R&D Systems Cat#391-GR) (human, UniProt P08069 31-932); experiment: as above
T7 construct: Bought from R&D Systems as a soluble receptor; also called insulin-like growth factor-1 soluble receptor

[7] = target: T8, Recombinant Human DLL4 (R&D Systems Cat#1506-D4/CF) (human, UniProt Q9NR61 27-524); experiment: as above
T8 construct: Bought from R&D Systems; also called delta-like protein 4; rHuman DLL4

[8] = target: T9, rHuman EGF R/Fc Chimera, CF (R&D Systems Cat#344-ER) (human, UniProt P00533 25-645); experiment: as above
T9 construct: Bought from R&D Systems; also called epidermal growth factor receptor; Fc part of the bought chimera not given

[9] = target: T1, rHuman Erythropoietin R/Fc Chimera, CF …; experiment: as above
[10] = target: T10, Recombinant Human DLL4 (delta-like protein 4) (human, UniProt Q9NR61 27-524); experiment: ELISA, DLL4 coated on plate, Fab in solution, absorbance at 450 nm
T10 construct: Bought recombinant protein (R&D Systems Cat#1506-D4/CF); also called rHuman DLL4; Delta-like 4

[11] = target: T10, Recombinant Human DLL4 (delta-like …); experiment: ECL (MSD) multispot binding assay, DLL4 immobilized, Fab in solution

| Binder | ECL signal [1] | ECL signal [2] | ECL signal [3] | ECL signal [4] | ECL signal [5] | ECL signal [6] | ECL signal [7] | ECL signal [8] | ECL signal [9] | ELISA (Signal-Noise) [10] | ECL Signal/Noise [11] |
| --- | --- | --- | --- | --- | --- | --- | --- | --- | --- | --- | --- |
| Fab VH1-46_IGHD6-6*01_IGHJ1*01 S102A/S103P/S104F/H111F T28A & L6_IGKJ1*01 (Fab, V domains shown, Tested as a Fab made in E. coli; The heavy chain vector (Plasmid A) adds CH1 with His6 and Flag tags; The light chain vector (Plasmid C) adds kappa CL; also called APFF T28A) VH: QVQLVQSGAEVKKPGASVKVSCKASGYAFTSYYMHWVRQAPGQGLEWMGIINPSGGSTSYAQKFQGRVTMTRDTSTSTVYMELSSLRSEDTAVYYCAREEYAPFSAEYFQFWGQGTLVTVSS VL: not shown | 477 | 316 | 353 | 478 | 497 | 377 | 181000 | 329 | 477 |  |  |
| Fab VH1-46_IGHD6-6*01_IGHJ1*01 S102A/S103P/S104F/H111F (H:APFF) & L6_IGKJ1*01 S76P (Fab, V domains shown, Tested as Fab expressed in E. coli; VH was cloned into Plasmid A (CH1 constant region, His6 and Flag tags) and the kappa VL into Plasmid C (kappa CL)) VH: QVQLVQSGAEVKKPGASVKVSCKASGYTFTSYYMHWVRQAPGQGLEWMGIINPSGGSTSYAQKFQGRVTMTRDTSTSTVYMELSSLRSEDTAVYYCAREEYAPFSAEYFQFWGQGTLVTVSS VL: EIVLTQSPATLSLSPGERATLSCRASQSVSSYLAWYQQKPGQAPRLLIYDASNRATGIPARFSGSGSGTDFTLTIPSLEPEDFAVYYCQQRSNWPPWTFGQGTKVEIKR |  |  |  |  |  |  |  |  |  | 0.29 | 100 |
| Fab VH1-46_IGHD6-6*01_IGHJ1*01 S102A/S103P/S104F/H111F (H:APFF) & L6_IGKJ1*01 S76N (Fab, V domains shown, Tested as Fab expressed in E. coli; VH was cloned into Plasmid A (CH1 constant region, His6 and Flag tags) and the kappa VL into Plasmid C (kappa CL)) VH: QVQLVQSGAEVKKPGASVKVSCKASGYTFTSYYMHWVRQAPGQGLEWMGIINPSGGSTSYAQKFQGRVTMTRDTSTSTVYMELSSLRSEDTAVYYCAREEYAPFSAEYFQFWGQGTLVTVSS VL: EIVLTQSPATLSLSPGERATLSCRASQSVSSYLAWYQQKPGQAPRLLIYDASNRATGIPARFSGSGSGTDFTLTINSLEPEDFAVYYCQQRSNWPPWTFGQGTKVEIKR |  |  |  |  |  |  |  |  |  | 0.28 | 118 |
| Fab VH1-46_IGHD6-6*01_IGHJ1*01 S102A/S103P/S104F/H111F (H:APFF) & L6_IGKJ1*01 S76Q (Fab, V domains shown, Tested as Fab expressed in E. coli; VH was cloned into Plasmid A (CH1 constant region, His6 and Flag tags) and the kappa VL into Plasmid C (kappa CL)) VH: QVQLVQSGAEVKKPGASVKVSCKASGYTFTSYYMHWVRQAPGQGLEWMGIINPSGGSTSYAQKFQGRVTMTRDTSTSTVYMELSSLRSEDTAVYYCAREEYAPFSAEYFQFWGQGTLVTVSS VL: EIVLTQSPATLSLSPGERATLSCRASQSVSSYLAWYQQKPGQAPRLLIYDASNRATGIPARFSGSGSGTDFTLTIQSLEPEDFAVYYCQQRSNWPPWTFGQGTKVEIKR |  |  |  |  |  |  |  |  |  | 0.32 | 187 |

The next lines start with the values.

| ECL signal [1] | ECL signal [2] | ECL signal [3] | ECL signal [4] | ECL signal [5] | ECL signal [6] | ECL signal [7] | ECL signal [8] | ECL signal [9] | ELISA (Signal-Noise) [10] | ECL Signal/Noise [11] | Binder |
| --- | --- | --- | --- | --- | --- | --- | --- | --- | --- | --- | --- |
| 337 | 408 | 353 | 368 | 396 | 343 | 178000 | 351 | 479 |  |  | Fab VH1-46_IGHD6-6*01_IGHJ1*01 S102A/S103P/S104F/H111F T30A & L6_IGKJ1*01 (Fab, V domains shown, Tested as a Fab made in E. coli; The heavy chain vector (Plasmid A) adds CH1 with His6 and Flag tags; The light chain vector (Plasmid C) adds kappa CL; also called APFF T30A) VH: QVQLVQSGAEVKKPGASVKVSCKASGYTFASYYMHWVRQAPGQGLEWMGIINPSGGSTSYAQKFQGRVTMTRDTSTSTVYMELSSLRSEDTAVYYCAREEYAPFSAEYFQFWGQGTLVTVSS VL: not shown |
| 178 | 298 | 248 | 334 | 290 | 227 | 59500 | 281 | 430 |  |  | Fab VH1-46_IGHD6-6*01_IGHJ1*01 S102A/S103P/S104F/H111F Y33A & L6_IGKJ1*01 (Fab, V domains shown, Tested as a Fab made in E. coli; The heavy chain vector (Plasmid A) adds CH1 with His6 and Flag tags; The light chain vector (Plasmid C) adds kappa CL; also called APFF Y33A) VH: QVQLVQSGAEVKKPGASVKVSCKASGYTFTSYAMHWVRQAPGQGLEWMGIINPSGGSTSYAQKFQGRVTMTRDTSTSTVYMELSSLRSEDTAVYYCAREEYAPFSAEYFQFWGQGTLVTVSS VL: not shown |
